The record followed here is US20040214282A1 (BOARD OF TRUSTEES OF THE UNIVERSITY OF ARKANSAS, published 2004).

The target in this assay is T1, recombinant I-domain of α2 integrin subunit (human, UniProt P17301 169-366).
T1 construct: domain: I-domain; Expressed from pQE30 and purified by Ni2+-chelating chromatography; also called α2-I domain
T1 sequence: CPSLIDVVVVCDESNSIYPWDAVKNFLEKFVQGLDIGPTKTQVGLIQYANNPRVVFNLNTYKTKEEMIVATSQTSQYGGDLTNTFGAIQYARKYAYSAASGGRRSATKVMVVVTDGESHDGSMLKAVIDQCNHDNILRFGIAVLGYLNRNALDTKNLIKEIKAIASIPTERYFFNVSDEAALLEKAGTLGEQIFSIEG
Description: SPR (BIACORE 3000), P176 immobilized on a CM5 chip, α2-I as analyte, 1 mM MgCl2; Scatchard analysis of the equilibrium responses.

B1: recombinant P176 (Scl1.41 recombinant protein) (other)
chain: EDSETATARTKLLEKLTELRSQSQDRVPQTSDITQAYTLWGTSYDSVELYKYLQQIEEYLQKQKYHEEQWKKEITDGLKSGALRGEKGEAGPQGEKGLPGLTGLPGLPGERGPRGPKGDRGETGAQGPVGPQGEKGEAGTPGKDGLRGPQGDPGAPGKDGAPGEKGDRGETGAQGPVGPQGEKGEAGTPGKDGAPGEKGEKGDRGETGATGAQGPQGEAGKDGAQGPVGPQGEKGETGAQGPAGPQGEKGETGAQGPAGPQGEAGQPGEKAPEKSPEVTPTPEMPEQPGEQAPEKSKEVTPAPEKWSHPQFEK
notes: Expressed in E. coli from pSL176 (scl1.M41 allele, GenBank AY452037); also called Scl P176
Turning to B1, the Kd worked out at 17 nM.
